Source: the nanobody polyreactivity screen of Harvey et al. (2022)

Assay: yeast display, Sf9 membrane polyspecificity reagent, FACS + sequencing; frameworks hold sequencing errors
Method in brief: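 Nanobodies from a synthetic yeast display library (Saccharomyces cerevisiae BJ5465), induced 36–48 hours with galactose, were stained 1 hour at 4 °C with 10% biotinylated, detergent-solubilized Sf9 membrane reagent, enriched on streptavidin microbeads, then FACS-sorted. Anti-HA (expression) and streptavidin (reagent binding) fluorescence set low and high (top ~1%) gates. Polyreactivity labels come from the gate of origin. Genes were colony-PCR amplified, MiSeq 2 × 250 sequenced and filtered by CDR length.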

Row | Sequence | polyreactivity (PSR sort gate)
1 | QVQLVESGGGLVQAGGSLRLSCAASVYTSSLNAMGWYRQAPGKERELVARITTDGTSTYYADSVKGRFTISRDNAKNTVYLQMNSLKPEDTAVYYCNARYPAYGVRSWYPYAYYYWGQGTQVTVSS | low polyreactivity
2 | QVQLVESGGGLVQAGGSLRLSCAASVYTVVWYAMGWYRPAPGKERELVAVITSGGGTNYADSVKGRFTISRDNAKNTVYLQMNSLKPEDTAVYYCAAVWYTSRQKYDYWGQGTQVTVSS | low polyreactivity
3 | QVQLVESGGGLVQAGGSLRLSCAASYAMGGYRQAPGKERELVAGISRSGDITYYADSVKGRFTISRDNAKNTVYLQMNSLKPEDTAVYYCAARQGRYSGRQLFYWGQGTQVTVSS | high polyreactivity
4 | QVQLVESGGGLVQAGGSLRLSCAATGFIFPKYAMGWYSKAPGKERELVAAISKSGGRTYYADSVKGRFTISRDNAKNTVYLQMNSLKPEDTAVYYCAAEFTYEGDSWGQGTQVTVSS | high polyreactivity
5 | QVQLVESGGGLVQAGGSLRLSCAATGFTFSRNTMGWYRQAPGKERELGARITKRGGTTYYADSVKGRFTISRDNAKNTVYLQMNCLKPEDSAVYYCAAATQNPGSDYWGQGTQVTVSS | high polyreactivity
6 | QVQLVESGGGLVQAGGSLRLSCAATGFTFVYYAMGWYRPAPGKERELVAAISSSGTRTYYADSVKGRFTISRDNAKNTVYLQMNSLKPEDTAVYFCAARNTYRTKVDYWGQGTQVTVSS | high polyreactivity
7 | QVQLVESGGGLVQAGGSLRLSCAATGFTLTRNAMGWYRQAPGKERELVAAISWSGGTTYYADSVKGRFTISRDNAKNTFYLQMNSLKPEDTAVYYCAALRYKLPLGYWGQGTQVTVSS | high polyreactivity
8 | QVQLVESGGGLVQAGGSLRLSCAATGIFVVYAMGWYREAPGKERELVAAIRSDASTNYADSVKGRFTISRDNAKNTVYLQMNILKPEDTAVYYCNTAQLVSDEFDYWGQGTQVTVSS | low polyreactivity
9 | QVQLVESGGGLVQAGGSLRLSCAATGITFIVYVMGWYRQAPGKERELFATISYDDSTYADSVKGSFTISRDNAKNTVYLQMNSLKPEDTAVYYDYWGQGTQVTVSS | low polyreactivity
10 | QVQLVESGGGLVQAGGSLRLSCAATGITFRYNAMGWYRLAPGKERELVAAITFSGGSTYYADSVKGRFTISRDNAKNTVYLQMNSLKPEDTAVYYCAKLGSTSSRGNYDYWGQGTQVTVSS | low polyreactivity
11 | QVQLVESGGGLVQAGGSLRLSCAATGLTLKENVMGWYRQAPGKERELVAAISTGASTYYADSVKGRFTISRDNAKNTVYLQMNSLKPEDTAVYYCAKRVTRCYGYWGQGTQVTVSS | high polyreactivity
12 | QVQLVESGGGLVQAGGSLRLSCAATGLTVRYYTMGWYRQAPGKERELVASITIRGGSTYYADSVKGRFTISRDNAKNTVYLQMNSLKAEDTAVYYCNTRYGYSFGYWGQGTQVTVSS | high polyreactivity
13 | QVQLVESGGGLVQAGGSLRLSCAATGNTFTYNTMGWYRQAPGKERELVARITFSAGRTYYADSVKGRFTISRDNAKNTVYLQMNSLKPEDTAVYYCAAYSFGLRSYYLYDYWGQGTEVTVSS | high polyreactivity
14 | QVQLVESGGGLVQAGGSLRLSCAATGRIFGQYAMGWYRQAPGKESDFVAVISKRGGRTYYADSVMGRFTISRDNAKNTVYLQMNSLKPEDTAVYYCAAEYYPHDGAQYEYWGQGTQVTVSS | high polyreactivity
15 | QVQLVESGGGLVQAGGSLRLSCAATGRIFHGYAMGWYRQAPGKERELVAAIDEDGGSTYYADSVKGRFTISRDNAKNTVYLQMNSLKPVDTAVYYCNADCSVRLDGFDYWGQGTQVTVSS | low polyreactivity
16 | QVQLVESGGGLVQAGGSLRLSCAATGRIFIDNTMGWYRQAPGKERELVAAISWSGGSTYYADSVKGRFTISRDNAKNTVYLQMNCLKPEDTAVYYCAARRLRSNGRTWAVTYDYWGQGTQVTVSS | low polyreactivity
17 | QVQLVESGGGLVQAGGSLRLSCAATGRIFSFYAMGWYRQAPGKERELVAAITWGDGSTYYAVSVKGRFTISRDNAKNTVYLQMNSLKPEDTAVYYCNKTYIDTTVYDVIMDYWGQGTQVTVSS | low polyreactivity
18 | QVQLVESGGGLVQAGGSLRLSCAATGRISVFYTMRWYRQPPGKATELVAVIRTSVGRTNYADYVKGRFTISRVNAKNTVYLQMNSLKPEDTAVYYCAAGVVSYGYNYYYWGQGTQVTVSS | low polyreactivity
19 | QVQLVESGGGLVQAGGSLRLSCAATGRTFGYSPMGSYRPAPGKERELVAAISRRGGSTYYADSVKGRFIISRDNAKNTVYLQMNSLKPEDTAVYYCAKGHQWGLKGGYDYWGQGTQVTVSS | high polyreactivity
20 | QVQLVESGGGLVQAGGSLRLSCAATGRTFSGNAMGWYRQAPAKERELVAAISRSGGTTYYADSVKGRFTISRDNAKNPVYLQMNSLKPEDTAVYYCNRGWANWLGPDDYWGQGNQVTVSS | high polyreactivity
21 | QVQLVESGGGLVQAGGSLRLSCAATGSIFGIYTMGWDRQAPGKERELVAAIRRSGSTNYADSVKGRFTISRDNEKNTVYLQMNSLKPEDSAVYYCAADALSDEYDYWGQGTQVTVSS | low polyreactivity
22 | QVQLVESGGGLVQAGGSLRLSCAATGSIFGKYAMGWSRQAPGKERELVAVITWSGGSTYYADSVKGRFTISRDNAKNTVYLQMNSLKPEDTAVYYCNAANTGSQDYQSIGYNFNYWGQGTQVTVSS | low polyreactivity

Row | Sequence | polyreactivity (PSR sort gate)
23 | QVQLVESGGGLVQAGGSLRLSCAATGSIFSYYDMAWYRQAPGNERELVAGISRGGSTNYADSVKGRFTISRDNGKNTVYLQMNSLKEEDTAVYYCNADQSSRTYPFRRSRRSWLYGYWGQGTQVTVSS | low polyreactivity
24 | QVQLVESGGGLVQAGGSLRLSCAATGSIFWVNGMGWYRQAPGKERELVAAITWSGGSTYYADSVKGRFTISRDNAKNTVYLQMNSLKPEDTAVYYCADYGQYYLWDGYGYWGQGTQVTVSS | low polyreactivity
25 | QVQLVESGGGLVQAGGSLRLSCAATGSIFYHYAMGWYRQAPGKERELVAAISGSGGSTYYADSVKGRFTISRDNAKNTVYLQMNSLKPEDTAVYYCAADTSRYHYSRYFFDSDYWGQGTQVTVSS | low polyreactivity
26 | QVQLVESGGGLVQAGGSLRLSCAATGSIINRYVMGWYRQAPGKEREFVAAIRNTGGSTYYADSVKGRFTISRDNAKNTVYLQMNSLKPEDPAVYYCAAVYRSAYDGLDHGYRRHDYWGQGTQVTVSS | high polyreactivity
27 | QVQLVESGGGLVQAGGSLRLSCAATGSIISVNTMGWYRQAPGKERELVATIRTGDSTNYADSVKGRFTISRDNAKYTVYLQMNSLKPEDTAVYYCAAEWSSLNFDYWGQGTQVTVSS | low polyreactivity
28 | QVQLVESGGGLVQAGGSLRLSCAATGSIVYSNTMGWYRQSPGKERELVAAISTSDTSTYYADSVKGRFTISRDNGKNTVYLQMNSLKPQDTAVYYCNAVCSIVLYGYWGQGTQVTVSS | low polyreactivity
29 | QVQLVESGGGLVQAGGSLRLSCAATGSTFARYAMGWSRQAPGKERELVAAISRRGGSTYYADSVTGRFTLSRDNAKNTVYLQMNSLNQEDTAVDSCAARYGIISSFEYDYWGQGTQVTVSS | high polyreactivity
30 | QVQLVESGGGLVQAGGSLRLSCAATGSTFATNAMGWYKQAPGKEREFVAAISRRGGRTYYADSVKGRFTISRDNAKNTVYLKMNSVKPEDTAVYYCNTLRVGWGQGTQVTVSS | high polyreactivity
31 | QVQLVESGGGLVQAGGSLRLSCAATGSTFGGNAMGWYRQAPGKERELVAAISSSGGSTYYADSVKGRFTISRDNAKNTVYLQRNRLKPEDTAVYYCAALYHWTYDYWGQGTQVTVSS | low polyreactivity
32 | QVQLVESGGGLVQAGGSLRLSCAATGSTFYHYAMGWYRQAPGKEREFVAAISTSGGRTYYADSVKGRFTISRDNAKNTVYLQMNSLKPEDTAVYYCAARPGSWYPSVPSYNYWGQGTQVTVSS | low polyreactivity
33 | QVQLVESGGGLVQAGGSLRLSCAATGSTSVHNAMGWYRQAPGKERELVDAITSDGSTNYADSVKGRFTISRDNAKNTVYLQMNSLKPEDTAVYFCGAAYWTRLRRMDYWGQGTQVTVSS | low polyreactivity
34 | QVQLVESGGGLVQAGGSLRLSCAATGSTYPRNDRGWYRQAPGKERELVAAISRGGSTNYADSVKGRFTISRDNAKNTVYLQMNSLKPEDTAVYFCAAQIFESAYGMDYWGQGTQVTVSS | low polyreactivity
35 | QVQLVESGGGLVQAGGSLRLSCAATGTFIIYAMGRYRQAPGKERELVATISTGGSTNYADSVKGRFTISRDNAKNTVYLQMNSLKPEDTAVYYCAAEWLYPHDGGYPRPMDYCGQGTQVTVSS | low polyreactivity
36 | QVQLVESGGGLVQAGGSLRLSCAATGYIFSHYAMGWYRQAPGKERELVAAITRSGGSTYYADSVKGRFTISRDNAKNTVYLQMNSLKPEVTAVYYCAASSLFYYWGQGTQVTVSS | high polyreactivity
37 | QVQLVESGGGLVQAGGSLRLSCAATGYTFFRNTMGWYRQAPGKESELVAVITKSGGSTYYADSVKWRFTISRDNAKNTVYLHMNSLIPEDTAVYYCNAVTALRNTEYNYWGQGTQVTVSS | high polyreactivity
38 | QVQLVESGGGLVQAGGSLRLSCAAYASTLANYALGWYRQSPGKERELVAAINSGGSTYYADSVKGRFTISRDNAKNTVYLQMNSLKPEDTAVYYCAARYASPRYKSKMDYWGQGTQVTVSS | high polyreactivity
39 | QVQLVESGGGLVQAGGSLRLSCAAYGFIFIGYTMGWYRQAPGKERELVATISLGDDSTYYADSVKGRFTISRDNAKNTVYLQMNSLKPEDTAVYYCAADQIDGTTSAYDYWGQGTQVTVSS | low polyreactivity
40 | QVQLVESGGGLVQAGGSLRLSCAAYGFIFRNYAMGWDRQAPGKERELVAAITWRGGSTYYADSVKGRFTISRDNAKNTVYLQMNSLKPEDTAVYYCAARGYRSREDYWGQGTQVTVSS | high polyreactivity
41 | QVQLVESGGGLVQAGGSLRLSCAAYGFIFVRYAMGWYRQAPGKERELVAAISWRGGSTYYADSVKGRFTISRDNAKNTVYLQMNSLKPEDNAVYYCAGAVYQRARYYWGQGTQVNVSS | high polyreactivity
42 | QVQLVESGGGLVQAGGSLRLSCAAYGFIYRYYAMGWNRQAPGKERELVPGISVSGGGTYYADSVKGRFTISRDNAKNTVNLQMNSLKPEDTAVYYCAAERTFLYWAYDYWGQGTQVNVSS | high polyreactivity
43 | QVQLVESGGGLVQAGGSLRLSCAAYGHFFAIYAMGWYSQAPGKEREFVAAITFTTRTYYADSVKGRFTISRDNAKNTVYLQMNSLKPEDTAVYYCAAGGYGEEYDYWGQGTQVTVSS | low polyreactivity
